Reference: publication PMC11089504 (Journal of medicinal chemistry, 2024)

How the values were obtained:
[1] = system: CC(C)=CCC[C@@H](C)[C@H]1CC[C@@]2(C)C3=C(CC[C@]12C)[C@@]1(C)CC[C@H](O)C(C)(C)[C@@H]1CC3; test: purified protein, by the assay type; conditions: other: 37 °C, 1 min reactions obtusifoliol, 20 min lanosterol
[2] = system: C=C(CC[C@@H](C)[C@H]1CC[C@@]2(C)C3=C(CC[C@]12C)[C@@]1(C)CC[C@H](O)[C@@H](C)[C@@H]1CC3)C(C)C; test: purified protein, by the assay type; conditions: other: 37 °C, 1 min reactions obtusifoliol, 20 min lanosterol
A. castellanii CYP51 = biological target: T1, A. castellanii CYP51 (Acanthamoeba castellanii, UniProt L8GJB3, V2A); test: A. castellanii CYP51 inhibition assay, reconstituted 1 h enzyme reaction; format: biochemical; conditions: 1 h IC50, 1 h reaction, 0.5 μM P450, 50 μM obtusifoliol
T1 sequence (L8GJB3 1-486 V2A): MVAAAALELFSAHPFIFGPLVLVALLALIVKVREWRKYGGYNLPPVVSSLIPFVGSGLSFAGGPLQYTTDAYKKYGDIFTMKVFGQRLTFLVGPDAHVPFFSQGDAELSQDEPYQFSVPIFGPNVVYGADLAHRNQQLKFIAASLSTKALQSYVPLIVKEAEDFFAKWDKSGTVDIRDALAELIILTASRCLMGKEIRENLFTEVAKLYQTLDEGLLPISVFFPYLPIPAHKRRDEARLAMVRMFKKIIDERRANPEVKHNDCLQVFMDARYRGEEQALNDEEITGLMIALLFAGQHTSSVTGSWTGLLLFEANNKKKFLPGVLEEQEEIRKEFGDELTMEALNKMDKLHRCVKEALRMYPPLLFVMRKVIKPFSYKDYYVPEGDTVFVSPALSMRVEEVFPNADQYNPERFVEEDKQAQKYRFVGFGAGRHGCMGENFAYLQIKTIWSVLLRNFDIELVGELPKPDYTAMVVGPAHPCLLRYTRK
T1 sequence (P00388 2-678 partner): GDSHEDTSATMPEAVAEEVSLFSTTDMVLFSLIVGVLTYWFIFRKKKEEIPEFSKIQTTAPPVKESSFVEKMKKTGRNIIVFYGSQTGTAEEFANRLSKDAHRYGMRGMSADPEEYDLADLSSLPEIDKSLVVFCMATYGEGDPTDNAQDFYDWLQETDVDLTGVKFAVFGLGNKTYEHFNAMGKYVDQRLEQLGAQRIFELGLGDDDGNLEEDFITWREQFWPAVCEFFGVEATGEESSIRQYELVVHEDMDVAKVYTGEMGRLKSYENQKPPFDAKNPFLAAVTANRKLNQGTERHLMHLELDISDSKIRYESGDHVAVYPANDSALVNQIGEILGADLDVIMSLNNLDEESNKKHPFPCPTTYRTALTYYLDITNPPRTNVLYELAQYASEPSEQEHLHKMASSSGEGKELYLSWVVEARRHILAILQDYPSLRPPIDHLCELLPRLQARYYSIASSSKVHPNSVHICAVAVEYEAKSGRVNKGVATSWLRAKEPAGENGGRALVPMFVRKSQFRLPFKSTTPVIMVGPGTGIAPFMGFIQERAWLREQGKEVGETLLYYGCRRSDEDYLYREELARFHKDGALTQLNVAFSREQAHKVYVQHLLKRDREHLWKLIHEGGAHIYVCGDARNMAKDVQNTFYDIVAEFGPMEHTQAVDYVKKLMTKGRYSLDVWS

Compound	Km [1]	kcat [1]	kcat/Km [1]	Km [2]	kcat [2]	kcat/Km [2]	IC50 (A. castellanii CYP51)
A. castellanii CYP51 (Acanthamoeba castellanii str. Neff; V2A)	52 ± 15 µM	0.102 s⁻¹	2000 M⁻¹ s⁻¹	2.7 ± 0.3 µM	0.513 s⁻¹	190000 M⁻¹ s⁻¹	–
OC(Cn1cncn1)(Cn1cncn1)c1ccc(F)cc1F [fluconazole]	–	–	–	–	–	–	71 µM
